Experimental data reported in patent publication US20200087383A1 (NATIONAL CHENG KUNG UNIVERSITY, published 2020).

Columns and labels:
[1] = target: T1, antigen comprising the amino acid sequence YKDWSEWGKAC (SEQ ID NO: 12); test: ELISA of hybridoma supernatants on the antigen comprising SEQ ID NO: 12
T1 construct: Any carrier or conjugate is not described; also called screening antigen
T1 peptide: YKDWSEWGKAC

[2] = target: bovine serum albumin (BSA) (bovine, UniProt P02769 25-607); test: western blotting
Sequence of bovine serum albumin (BSA) (P02769 25-607 limits assumed): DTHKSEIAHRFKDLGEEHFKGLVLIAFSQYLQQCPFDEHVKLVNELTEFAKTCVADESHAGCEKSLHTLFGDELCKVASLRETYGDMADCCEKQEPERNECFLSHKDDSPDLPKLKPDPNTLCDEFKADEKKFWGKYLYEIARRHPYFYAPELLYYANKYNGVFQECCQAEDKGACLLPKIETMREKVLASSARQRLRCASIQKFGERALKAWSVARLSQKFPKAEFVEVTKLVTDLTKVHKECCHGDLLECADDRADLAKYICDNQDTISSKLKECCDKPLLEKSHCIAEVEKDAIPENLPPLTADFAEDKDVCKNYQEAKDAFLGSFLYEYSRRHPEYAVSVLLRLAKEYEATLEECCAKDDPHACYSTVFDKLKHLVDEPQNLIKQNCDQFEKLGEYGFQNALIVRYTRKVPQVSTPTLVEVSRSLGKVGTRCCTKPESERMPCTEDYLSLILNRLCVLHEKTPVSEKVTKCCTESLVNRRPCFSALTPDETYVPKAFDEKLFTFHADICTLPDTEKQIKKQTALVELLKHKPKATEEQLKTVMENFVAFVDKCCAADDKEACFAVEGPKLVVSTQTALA

B1: anti-DENV NS1 monoclonal antibody mAb 33D2 (antibody, V domains shown)
VH: DVQLQESGPGLVKPSQSLSLTCTVTGYSITSDYAWNWIRQFPGNKLEWMGFISYSGSARYNPSLISRTSITRDTSKNQFFLHLNSVTTEDTAIYYCARVERLGYFDVWGAGTTVTVSS
VL: DIVLTQSPASLAVSLGQRASISCKASQSVDYDGDSYMHWYQQKPGQPFKLLIYAASNLESGIPARFSGSGSGTVFTLNIHPVEEEDAATYYCQQSNEDPTFGGGTRLEIKR
notes: also called anti-NS1 mAb 33D2; anti-DENV antibody 33D2
binding result [1]: binds
binding result [2]: no binding
